Experimental findings from patent US20170137490A1, “PEPTIDES, AND METHODS AND APPARATUS UTILISING SAME” (The University of Manchester, priority 2014, published 2017) are described below.

By Kd is commonly meant a measure of binding affinity in units of concentration. A lower Kd goes with higher affinity.

Data set [1] has as its target T1, N-C3 (Homo sapiens, UniProt Q13018).
T1 construct: the N-terminus to and including CTLD3 (N-C3); no tag is printed; made in house; host or cells: HEK 293-EBNA1
The experiment in a line: SPR kinetics of patient sera autoantibodies over immobilized N-C3. The settings on record: patient autoantibodies in sera binding to immobilized N-C3. As for the experimental part:
Quantitation of serum antibody concentrations was performed on the Proteon XPR-36 (Bio-Rad) SPR instrument where the initial binding rates of purified human anti-PLA2R binding to N-C3 were used as standard curve to determine the concentration of anti-PLA2R in the unknown serum samples.
(Surface plasmon resonance follows binding to a sensor surface in real time, without labels.)

Data set [2] has as its system purified anti-PLA2R antibody. The settings on record: pH 6.2 (tight) vs pH 7.2 (extended).
Data set [3] can be described thus: Dual polarisation interferometry, pH dependent conformational change. Type of data set: physicochemical. The settings on record: pH range 5.0 to 7.2 screened; thickness of protein layer. How it is done: Dual polarisation interferometry was used to provide quantitative information on the thickness, the refractive index and density of the immobilized PLA2R layer with the capability to measure conformational change in real time. The DPI experiments were performed on a Farfield AnaLight instrument. […] N-C8 and N-C3 were regenerated between the different pHs with running buffer pH 7.2. Analysis of the raw data and determination of density, thickness and mass per unit area was achieved using the AnaLight® Bio200 analysis software (Farfield Scientific).

Data set [4] deals with human anti-PLA2R autoantibodies. Nature of the data set: Western blotting of PLA2R fragments with human anti-PLA2R autoantibodies. Type of data set: binding.
Data set [5] in a line: Sedimentation velocity (analytical ultracentrifugation). Type of data set: physicochemical. To be noted: for Frictional ratio (f/f0): from Mass derived from MALLS. How it is done:
The experiments were performed using double sector cells and a rotor speed of 74,500 g for N-C8 and 116,500 g for N-C3, taking 150 scans at 1.5 minutes intervals at a wavelength of 280 nm and at a temperature of 20° C. The sedimenting boundaries were analyzed using the program Sedfit v8.7.

A short description of data set [6]: Hydrodynamic radius from QELS. Type of data set: physicochemical. To be noted: pH 7.4.
Data set [7] relates to anti-PLA2R autoantibodies in patient sera. Nature of the data set: N-C3 inhibition ELISA (autoantibody binding to N-C8). Set-up: species or system human. The settings on record: N-C3 9.0 μg ml-1; 43 PLA2R-positive sera. As for the experimental part:
The ELISA method was a variation on the standard assay previously described. Briefly, PLA2R (N-C8) at 125 ng ml-1 was coated onto ELISA plates overnight and plates blocked with Superblock (Thermo Scientific). 50 μl of 1:100 dilution of patient serum plus 50 μl of either buffer or NC-3 fragment to give a final concentration in the well of 9.0 μg ml-1, 0.9 μg ml-1, 0.09 μg ml-1 and 0.009 μg ml-1 were preincubated for 2 hours at room temperature before adding to the ELISA plate for a further 2 hours with shaking. Following extensive washing, anti-human IgG-HRP at 1:25,000 dilution in assay buffer was added to all wells for 2 hour incubation. Following washing, the plate was developed by adding substrate and the reaction terminated at 5 minutes by addition of 1 M H2SO4. Plates were read at 450 nm and inhibition curves constructed. The concentration of 9.0 μg ml-1 was used to compare the inhibition profile of 43 different sera previous reported as anti-PLA2R positive.
(In general: In an ELISA, binding on a coated surface is turned into a signal by an enzyme label.)

T1 sequence (Q13018 21-643 limits assumed): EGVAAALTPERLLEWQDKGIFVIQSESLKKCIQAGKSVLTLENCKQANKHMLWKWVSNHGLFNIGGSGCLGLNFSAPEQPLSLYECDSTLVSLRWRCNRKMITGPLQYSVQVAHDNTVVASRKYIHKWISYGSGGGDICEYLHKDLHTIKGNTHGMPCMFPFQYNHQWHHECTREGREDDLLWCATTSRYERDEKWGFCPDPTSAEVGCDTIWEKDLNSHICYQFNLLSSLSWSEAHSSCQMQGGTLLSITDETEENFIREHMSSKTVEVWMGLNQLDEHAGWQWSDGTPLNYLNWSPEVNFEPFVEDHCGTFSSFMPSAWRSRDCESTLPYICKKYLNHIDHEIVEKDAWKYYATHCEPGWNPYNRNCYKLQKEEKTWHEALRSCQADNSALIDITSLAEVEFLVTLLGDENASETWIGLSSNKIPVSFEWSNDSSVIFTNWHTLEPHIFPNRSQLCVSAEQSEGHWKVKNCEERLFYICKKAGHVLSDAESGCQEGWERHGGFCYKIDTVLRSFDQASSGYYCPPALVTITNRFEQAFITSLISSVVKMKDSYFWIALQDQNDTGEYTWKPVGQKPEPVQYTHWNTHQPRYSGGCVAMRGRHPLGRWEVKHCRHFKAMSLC

In the case of “YLNHIDHEIVEKDAWK [compound 4, Linker between CTLD1 and CTLD2]”, binding in data set [1] was characterised by a dissociation constant (Kd) of 0.085 nM.
Still for that read-out and setting: the same measure for “EDDLLWCATTSR [compound 3, Fibronectin type II domain peptide]”: 0.043 nM.
For the substance “YYATHCEPGWNPYNR [compound 5, Linker between CTLD1 and CTLD2]”, binding in data set [1] was characterised by a dissociation constant (Kd) of 0.032 nM.
Regarding “N-C8: recombinant full length extracellular PLA2R”, the “difference in affinity of anti-PLA2R binding between conformations” value in data set [2] is “no difference in affinity”. Also, the “pH region where the transition in conformation occurred” value in data set [3] is listed as approximately 6.2 pH. Further, the “recognition by human anti-PLA2R autoantibodies” value (from here on “recognition”) in data set [4] was “recognized”. In data set [5] (pH 6.2), the “Sedimentation coefficient (S20, w)” value is 9.23 ± 0.25; the sedimentation coefficient was found to be 9.2 s; the “Frictional ratio (f/f0)” value amounted to 1.32. For the same substance, the sedimentation coefficient in data set [5] (pH 7.2) amounted to 8.1 s. Further, in data set [5] (pH 7.4), the “Sedimentation coefficient (S20, w)” value is 8.08 ± 0.21 and the “Frictional ratio (f/f0)” value amounted to 1.51. The Hydrodynamic radius in data set [6] is on record as 6.25 ± 0.19 nm.
“N-C2: recombinant PLA2R fragment, the N-terminus to and including CTLD2”: in data set [4], the “recognition” value is reported as “neither N-C2 nor C3 fragments were recognized”.
Regarding “N-C3: recombinant PLA2R fragment, the N-terminus to and including CTLD3”, the “patient sera in which binding of autoantibodies to N-C8 was effectively competed” value in data set [7] is reported as “approximately 90%”. In data set [4], the “recognition” value was “recognized”. For the same substance, the figures for the “Sedimentation coefficient (S20, w)” value in data set [5] (pH 6.2) and in data set [5] (pH 7.4) were 5.35 ± 0.10 and 5.29 ± 0.09, respectively. In addition, the sedimentation coefficient in data set [5] (pH 6.2) and in data set [5] (pH 7.2) was 5.3 s throughout. Besides, the “Frictional ratio (f/f0)” value was 1.39 in data set [5] (pH 6.2) and 1.38 in data set [5] (pH 7.4). Besides, the Hydrodynamic radius in data set [6] was determined as 3.81 ± 0.23 nm.
